Test results published in paper PMC5096715, “Mapping the Complement Factor H-Related Protein 1 (CFHR1):C3b/C3d Interactions” (PLoS ONE, 2016).

Target: the molecule itself
Experiment: SEC; preparative HiPrep 16/60 Sephacryl S200 column in DPBS pH 7.4

B1: complement factor H-related protein 1 (CFHR1), recombinant wild-type (natural protein, human, UniProt Q03591 19-330, looked up)
chain: EATFCDFPKINHGILYDEEKYKPFSQVPTGEVFYYSCEYNFVSPSKSFWTRITCTEEGWSPTPKCLRLCFFPFVENGHSESSGQTHLEGDTVQIICNTGYRLQNNENNISCVERGWSTPPKCRSTDTSCVNPPTVQNAHILSRQMSKYPSGERVRYECRSPYEMFGDEEVMCLNGNWTEPPQCKDSTGKCGPPPPIDNGDITSFPLSVYAPASSVEYQCQNLYQLEGNKRITCRNGQWSEPPKCLHPCVISREIMENYNIALRWTAKQKLYLRTGESAEFVCKRGYRLSSRSHTLRTTCWDGKLEYPTCAKR
notes: complement factor H-related protein 1, human, CFHR1*A variant, residues 19-330 of Q03591 (the mature protein, 5 SCR modules); no cleavage of the tag is told; Glycosylated; elutes as a mixture of dimers and monomers; also called wild-type CFHR1; CFHR1*A variant; source: Freestyle 293f cells, transiently transfected, secreted, purified (Histrap HP, Sephacryl S200 SEC); not shown: His6, N-terminal, …
  stoichiometry N: 2
